One substance from article PMC10434076 can be followed below.

This experiment concerns the target Campylobacter jejuni resistance enhancing CmeB (RE-CmeB) multidrug efflux pump (C. jejuni). Kind of experiment: cryo-EM structure; single-particle cryo-EM of 20 uM RE-CmeB in lipidic nanodiscs (MSP 1E3D1, E. coli total extract lipid; 20 mM Tris-HCl pH 7.5, 100 mM NaCl); apo, with fortuitous hydrolyzed ampicillin, or incubated with 1 mM Cip, Ery or Chl for 2 h on ice.

As for “Campylobacter jejuni resistance enhancing CmeB (RE-CmeB) multidrug efflux pump (natural protein)”, the stoichiometry N was 3.
